# Measurements from patent US9587002B2, “Sequence of nucleotides and peptides GSE 24.2 of dyskerin, which can induce telomerase activity, method for obtaining same, therapeutic compositions and applications thereof” (CONSEJO SUPERIOR DE INVESTIGACIONES CIENTIFICAS, priority 2005, dated 2017).
# Entries after “also recorded” stand apart in the source; their conditions may differ.
# B1: GSE 24.2: 165-pb cDNA fragment (nucleotides 268 to 433) of human dyskerin, SEQ ID NO1, encoding peptide SEQ ID NO2, expressed from pLNCX plasmid (nucleic acid, listed as Homo sapiens)
# DNA: GGTTTCATTAATCTTGACAAGCCCTCTAACCCCTCTTCCCATGAGGTGGTAGCCTGGATTCGACGGATACTTCGGGTGGAGAAGACAGGGCACAGTGGTACTCTGGATCCCAAGGTGACTGGTTGTTTAATCGTGTGCATAGAACGAGCCACTCGCTTGGTGAAG
# modifications: expressed from pLNCX plasmid; CDS (1)..(165) Sequence GSE 24.2
# Assays:
# hTERT promoter = assay: hTERT-luc reporter (luciferase) assay in 293T cells; assay type: cell-based, human
# Method: FIG. 8.—Activity of the hTERT promoter in the 293T cell lines: pLNCX and 24.2 and in 293T cells transiently transfected with the pLNCX-24.2 construct and the pLNCX empty plasmid. A) Both the pLNCX and the 24.2 cells were transiently transfected with 0.25 μg of the hTERT-luc reporter vector. The cells were seeded in 60-mm plates. After 24 hours of transfection, the cells were lysed and the luciferase activity of 10 μg of total protein was quantified. As a transfection control, the cells were co-transfected with a reporter vector, CMV-Renilla. B) The 293T cells were transfected with the pLNCX vector and the 24.2 plasmid (5 μg), and both were co-transfected with 0.25 μg of the hTERT-luc reporter vector. After seeding the cells as in A, they were transfected with pLNCX and 24.2, and co-transfected with the hTERT-luc reporter vector; subsequently, they were treated as in A. As a transfection control, the CMV-Renilla reporter vector was used. The data correspond to the ratio of relative units of luciferase with respect to non-transfected cells. Each point represents the mean±the standard deviation obtained from 3 independent experiments. C) The 293T cells were transfected with the different GSE 24.4, DSK, TRUB I, TRUB II constructs and the pLNCX empty plasmid (5 μg), and co-transfected with 0.25 μg of the hTERT-luc reporter vector. The cells were seeded in 60-mm plates; after 24 hours of transfection, the cells were lysed and the luciferase activity of 10 μg of total protein was quantified. As a transfection control, the cells were co-transfected with a CMV-Renilla reporter vector. The data correspond to the ratio of relative units of luciferase with respect to non-transfected cells. Each point represents the mean±the standard deviation obtained from 3 independent experiments.
# FIG. 9.—Activity of the hTERT promoter following treatment with cisplatin. A) Both the pLNCX cell line and the 24.2 cell line were transiently transfected with 0.25 μg of the hTERTIuc reporter vector. After 24 hours of transfection, they were treated with 3 μg/ml of cisplatin for 8 hours. The cells were seeded in 60-mm plates; after 24 hours of transfection and following treatment with cDDP, the cells were lysed and the luciferase activity of 10 μg of total protein was quantified. As a transfection control, the cells were co-transfected with a CMV-Renilla reporter vector. B) 293T cells which, after being transiently transfected with pLNCX and 24.2, were co-transfected with 0.25 μg of the hTERT-luc reporter vector and treated as in A. After seeding the cells as in A, they were transfected with pLNCX and 24.2, and co-transfected with the hTERT-luc reporter vector; subsequently, they were treated as in A. As a transfection control, the CMV-Renilla reporter vector was used. The data correspond to the ratio of relative units of luciferase with respect to non-transfected cells. Each point represents the mean±the standard deviation obtained from 3 independent experiments.
# A) The 293T cells were co-transfected with different constructs (10 μg/DNA per million cells) and the hTERT-luc reporter (1 μg per million cells). The specified cell lines were co-transfected with the hTERT-luc reporter and different quantities of the Mad/myc expression vector. (B) The specified cell lines were co-transfected with the HIV-luc reporter and with different quantities of the Mad/myc expression vector. After 24 h of transfection, the cells were stimulated with 50 ng/ml of TNF-α for 6 hours and the luciferase activity was analysed as described above. CMV-Renilla (0.1 μg/ml per million cells) was used as a control for the transfection efficiency. The data represent the mean of two experiments performed in quadruplicate.
# The pseudouridine synthase TRUB domain of dyskerin comprises two structural subdomains: the Trub I and II motifs (Zucchini et al., 2003). These two domains are critical to maintain the global protein structure of dyskerin. […]
# hTR = assay: RT-PCR of hTR in cells of patients with dyskeratosis congenita; assay type: cell-based, human; conditions: RT-PCR 24 hours after transfection
# Method: FIG. 10.—Telomerase activity and expression levels of hTERT and hTR in the cells of patients with dyskeratosis congenita and in VA13 cells transiently transfected with the 24.2 plasmid or the pLNCX empty vector. A) Telomerase activity measured by means of the TRAP assay in the cells of patients with dyskeratosis congenita (DC-1, DC-2 and DC-3) and in the carrier parent (DC-C) following electroporation of 45 μg of the pLNCX empty plasmid (−) or the pLNCX 24.2 vector (+) by 15 million cells. B) RT-PCR of the RNA from cells of one of the patients with dyskeratosis congenita, DC3 transfected with the empty vector and DC3 transfected with the 24.2 plasmid, using oligos specific for hTERT and hTR. As a starting RNA control, oligos for the amplification of GAPDH were used. C) Telomerase activity in VA13 cells. The cells were transiently transfected with 16 μg of the control pLNCX empty vector, expressing DKC or the GSE 24.2 peptide per million cells. 24 hours later, the telomerase activity was analysed as described above, using dilutions of the protein extracts from each transfection. D) The expression levels of hTERT and hTR in VA13 cells transfected with 16 μg of the different construct per million cells. RNA levels were detected as described above. GAPDH was used as a control. […] After 24 h of transfection, the luciferase activity was analyzed as described above. […]
molecule,measurement,setting,value
B1,"activity of the hTERT promoter, transient expression","hTERT promoter; 293T cells transiently transfected with construct vs empty vector, hTERT-luc, 24 hours",increases the activity of the hTERT promoter
same,"hTERT promoter activity following cisplatin, transient expression","hTERT promoter; 293T transiently expressing GSE 24.2 vs pLNCX, 3 μg/ml cisplatin 8 hours",greater than the baseline activity
same,"activity of the hTERT promoter, stable expression","hTERT promoter; pLNCX 24.2 cell line vs pLNCX, hTERT-luc, 24 hours",the activity of the hTERT promoter is greater; also recorded: increased the baseline activity of the telomerase promoter
same,"induction of hTERT promoter activity following cisplatin, relative to pLNCX cells","hTERT promoter; stable pLNCX 24.2 cells, 3 μg/ml cisplatin for 8 hours",4 times
same,hTR expression levels in dyskeratosis congenita cells,hTR,an increase in the expression levels was observed
